Data on 54 variants can be found in the RNAGym collection of RNA variant scans (doi:10.7554/elife.80360).

First the molecules themselves.
B1: Twister Ribozyme (parent)
chain: AACACUGCCAAUGCCGGUCCCAAGCCCGGAUAAAAGUGGAGGGGGCGG

Variants of B1 are the subject of this data set. Briefly: self-cleavage, relative activity (ratio to wild type); higher = more cleavage; co-transcriptional.
With AACACUGCCAAUGCCGGUCCCGAGCCCGGAUAAAAGUGGAGGGGCCGG [A22G G45C], the self-cleavage is 0.124. The figure for AACACUGCCAAUGCCGGUCCCCAGCCCGGAUAAAAGUGGCGGGGGCGG [A22C A40C] is 0.102.

With AACACUGCCAAUGCCGGUCCCCAGCCCGGAUAAAAGUGGUGGGGGCGG [A22C A40U], the self-cleavage turned out to be 0.152.

As for AACACUGCCAAUGCCGGUCCCCAGCCCGGAUAAAAGUGGAGGGGGCCG [A22C G47C], the self-cleavage was determined as 0.458. Under AACACUGCCAAUGCCGGUCCCCAGCCCGGAUAAAAGUGAAGGGGGCGG [A22C G39A] stands 0.238; under AACACUGCCAAUGCCGGUCCUAAGCCCGGAUAAAAGUGGAGUGGGCGG [C21U G42U], 0.0927. Under AACACUGCCAAUGCCGGUCCUAAGCCCGGAUAAAAGUGGAGAGGGCGG [C21U G42A] stands 0.0823; under AACACUGCCAAUGCCGGUCCCGAGCCCGGAUAAAAGUAGAGGGGGCGG [A22G G38A], 0.106; under AACACUGCCAAUGCCGGUCCCGAGCCCGGAUAAAAGUUGAGGGGGCGG [A22G G38U], 0.122. Consider AACACUGCCAAUGCCGGUCCCGAGCCCGGAUAAAAGUGGAGGGGGAGG [A22G C46A], for which the self-cleavage turned out to be 0.227.

Consider AACACUGCCAAUGCCGGUCCCGAGCCCGGAUAAAAGUGGAGGGGGGGG [A22G C46G], for which the self-cleavage is 0.328. Under AACACUGCCAAUGCCGGUCCCCAGCCCGGAUAAAAGUGGAGGGGUCGG [A22C G45U] stands 0.946. In the case of AACACUGCCAAUGCCGGUCCCCAGCCCGGAUAAAAGUGGAGGGGCCGG [A22C G45C], the self-cleavage was found to be 0.491.

For AACACUGCCAAUGCCGGUCCCCAGCCCGGCUAAAAGUGGAGGGGGCGG [A22C A30C], the self-cleavage stood at 1.07. The figure for AACACUGCCAAUGCCGGUCCCCAGCCCGGGUAAAAGUGGAGGGGGCGG [A22C A30G] is 1.16; for AACACUGCCAAUGCCGGUCCCCAGCCCGGAUCAAAGUGGAGGGGGCGG [A22C A32C] it is 1.08; for AACACUGCCAAUGCCGGUCCCCAGCCCGGAUUAAAGUGGAGGGGGCGG [A22C A32U] it is 0.858. Under AACACUGCCAAUGCCGGUCCCCAGCCCGGAUGAAAGUGGAGGGGGCGG [A22C A32G] stands 0.879; under AACACUGCCAAUGCCGGUCCUAAGCCCAGAUAAAAGUGGAGGGGGCGG [C21U G28A], 0.102. The figure for AACACUGCCAAUGCCGGUCCUAAGCCCCGAUAAAAGUGGAGGGGGCGG [C21U G28C] is 0.0826; for AACACUGCCAAUGCCGGUCCCGAGCCCGCAUAAAAGUGGAGGGGGCGG [A22G G29C] it is 0.0828; for AACACUGCCAAUGCCGGUCCCGAGCCCGAAUAAAAGUGGAGGGGGCGG [A22G G29A] it is 0.221.

Regarding AACACUGCCAAUGCCGGUCCCGAGCCCGGAUAACAGUGGAGGGGGCGG [A22G A34C], the self-cleavage was 0.0775. The figure for AACACUGCCAAUGCCGGUCCCGAGCCCGGAUACAAGUGGAGGGGGCGG [A22G A33C] is 0.147; for AACACUGCCAAUGCCGGUCCCCAGCCCGGAAAAAAGUGGAGGGGGCGG [A22C U31A] it is 0.54. The figure for AACACUGCCAAUGCCGGUCCCCAGCCCGGACAAAAGUGGAGGGGGCGG [A22C U31C] is 1.12; for AACACUGCCAAUGCCGGUCCCCAGCCCGGAUAAAAGUGGACGGGGCGG [A22C G41C] it is 0.195.

For the variant AACACUGCCAAUGCCGGUCCCCAGCCCGGAUAAAAGUGGAGGAGGCGG [A22C G43A], the self-cleavage amounted to 0.183. Turning to AACACUGCCAAUGCCGGUCCCCAGCCCGGAUAAAAGUGGAGGCGGCGG [A22C G43C], the self-cleavage was 0.145.

Turning to AACACUGCCAAUGCCGGUCCUAAGCCCGGAUAAAAGUGGAGGCGGCGG [C21U G43C], the self-cleavage came out at 0.0867. Under AACACUGCCAAUGCCGGUCCUAAGCCCGGAUAAAAGUGGAGGAGGCGG [C21U G43A] stands 0.08. Consider AACACUGCCAAUGCCGGUCCCCAGCUCGGAUAAAAGUGGAGGGGGCGG [A22C C26U], for which the self-cleavage came out at 0.631. For the variant AACACUGCCAAUGCCGGUCCCCAGCGCGGAUAAAAGUGGAGGGGGCGG [A22C C26G], the self-cleavage is 0.112.

Turning to AACACUGCCAAUGCCGGUCCCCAGCCCGGAUAAAAGUGGAGGGGGCGA [A22C G48A], the self-cleavage worked out at 1.01.

As to AACACUGCCAAUGCCGGUCCCCAGCCCGGAUAAAAGUGGAGGGGGCGU [A22C G48U], the self-cleavage stood at 1.03. The figure for AACACUGCCAAUGCCGGUCCCCAGCCCGGAUAAAAGUGGAGGGGGCGC [A22C G48C] is 1.16; for AACACUGCCAAUGCCGGUCCCGAGCCCGGAUAAAAGUGGAGGCGGCGG [A22G G43C] it is 0.154. Regarding AACACUGCCAAUGCCGGUCCCGAGCCCGGAUAAAAGUGGAGGUGGCGG [A22G G43U], the self-cleavage came to 0.101. The figure for AACACUGCCAAUGCCGGUCCCCAGCCCGGAUAAAAGAGGAGGGGGCGG [A22C U37A] is 0.84; for AACACUGCCAAUGCCGGUCCCCAGCCCGGAUAAAAGGGGAGGGGGCGG [A22C U37G] it is 0.631. The figure for AACACUGCCAAUGCCGGUCCUAAACCCGGAUAAAAGUGGAGGGGGCGG [C21U G24A] is 0.102; for AACACUGCCAAUGCCGGUCCCCAGCCCGGAUAAAAAUGGAGGGGGCGG [A22C G36A] it is 0.547; for AACACUGCCAAUGCCGGUCCCCAGCCCGGAUAAAACUGGAGGGGGCGG [A22C G36C] it is 0.345. The figure for AACACUGCCAAUGCCGGUCCCGAGCCCGGAUGAAAGUGGAGGGGGCGG [A22G A32G] is 0.25; for AACACUGCCAAUGCCGGUCCCCAGCCCGGAUAAAAGUGGAGUGGGCGG [A22C G42U] it is 0.198. Turning to AACACUGCCAAUGCCGGUCCUAAGCCCGCAUAAAAGUGGAGGGGGCGG [C21U G29C], the self-cleavage was determined as 0.0653. Under AACACUGCCAAUGCCGGUCCUAAGCCCGAAUAAAAGUGGAGGGGGCGG [C21U G29A] stands 0.096. The figure for AACACUGCCAAUGCCGGUCCCGAGCCCGGAUAAAACUGGAGGGGGCGG [A22G G36C] is 0.0743. For the variant AACACUGCCAAUGCCGGUCCCGAGCCCGGAUAAAAGUGAAGGGGGCGG [A22G G39A], the self-cleavage is 0.101.

On to AACACUGCCAAUGCCGGUCCCGAGCCCGGAUAAAAGUGUAGGGGGCGG [A22G G39U], for which the self-cleavage came out at 0.109. The figure for AACACUGCCAAUGCCGGUCCUAAGCCCGGAUAAAAGGGGAGGGGGCGG [C21U U37G] is 0.0506. The figure for AACACUGCCAAUGCCGGUCCUAAGCCCGGAUAAAAGCGGAGGGGGCGG [C21U U37C] is 0.0764. Under AACACUGCCAAUGCCGGUCCUAAGCCCGGAUAAAAGUGGAGGGGGCGA [C21U G48A] stands 0.131; under AACACUGCCAAUGCCGGUCCUAAGCCCGGAUAAAAGUGGAGGGGGCGU [C21U G48U], 0.125.
